The record followed here is article PMC12341506.

In the experiment the target is 3nv.2 SOSIP Env trimer (HIV-1 (clade C strain 426c)). In words: cryo-EM structure; single-particle cryo-EM of unliganded 3nv.2 SOSIP Env, from a sample incubated with polyclonal Fabs and purified by SEC in TBS; 2D class averages and 3D map, C1 or C3 symmetry.

What is called stoichiometry N is a count of units in the complex or per binding partner.

3nv.2 SOSIP Env trimer gave a stoichiometry N of 3.
